Assays:
[1] = In vivo delivery of human growth hormone in hairless rats; details: subcutaneous injection of 196 μg
Procedure: Microneedle devices were prepared as described in Example 3. The microneedles and base substrate were both made of CMC and, in some cases, 50% trehalose was included in the formulation too. Human growth hormone (Pfizer) was added to the microneedles at a content of 191-249 μg per 100-needle array. The ratio of growth hormone to matrix material (i.e., CMC or CMC plus trehalose) was 1 to 9. Microneedles were inserted into the skin of hairless rats (Charles River Laboratories). The microneedles inserted easily by hand and were left in place for 24 hours. Minimal skin irritation was seen after microneedle use. A positive control group was included, in which rats received subcutaneous injection of 196 μg of human growth hormone. Blood was drawn periodically and assayed using an ELISA kit specific for human growth hormone without cross-reactivity with rat growth hormone (Diagnostic Systems Laboratories, Webster, Tex.).

[2] = Lysozyme enzymatic activity (EnzCheck lysozyme assay kit) after encapsulation and storage; assay type: biochemical
Procedure: Enzymatic activity of lysozyme encapsulated within CMC microneedle devices was tested with EnzCheck lysozyme assay kit (Molecular Probes). Microneedle devices weighing 5 mg that contained lysozyme encapsulated at a concentration of 5 wt % were completely dissolved in PBS at room temperature for 10 min. PBS was added to dilute each sample to 0.05 μg/ml lysozyme and 0.95 μg/ml CMC. Lysozyme activity was assayed using 1 ml solution samples for: (1) untreated lysozyme, (2) untreated lysozyme (0.05 μg) and CMC hydrogel (0.95 μg) mixed, and dissolved together, (3) lysozyme encapsulated in microneedles that were dissolved 1 h after fabrication, and (4) lysozyme encapsulated in microneedles that were dissolved after 60 days of storage at ambient conditions.

[3] = Lysozyme secondary structure by circular dichroism after encapsulation and storage; assay type: physicochemical
Procedure: The secondary structure of the model drug lysozyme was examined by spectropolarimetry (JASCO, J-810, Tokyo, Japan) after encapsulation and release from dissolving microneedles produced in accordance with Example 3. CMC pyramidal microneedle devices weighing 5 mg that encapsulated lysozyme at a mass fraction of 5 wt % were completely dissolved in […] PBS at room temperature for 10 min and filtered by centrifugal filtration (Centricon YM-50, Millipore, Bedford, Mass., USA) at 1000×g and room temperature for 10 min to isolate lysozyme (14.3 kDa) from the dissolved CMC matrix material (90 kDa average molecular mass). After determining lysozyme concentration, PBS was added to dilute the lysozyme to 20 μg/ml. CD spectra were taken for (1) untreated lysozyme, (2) lysozyme encapsulated in microneedles that were dissolved 1 h after fabrication, (3) lysozyme encapsulated in microneedles that were dissolved after 60 days of storage at ambient conditions (23±2° C. and 38±5% relative humidity), and (4) lysozyme thermally treated at 80° C. for 30 min to cause irreversible denaturation.

For “growth hormone: Human growth hormone (Pfizer)”, the “time of serum concentration peak” value [1] was “within about one hour”.

For “lysozyme: model drug (14.3 kDa) encapsulated at 5 wt % in CMC microneedle devices”, the “loss of enzymatic activity compared to untreated enzyme” value ([2]; encapsulated in microneedles, dissolved in PBS) was “no loss of enzymatic activity”, the retained enzymatic activity ([2]; released from microneedles after two months of storage) was 96% and the “change in lysozyme activity” value ([2]; untreated lysozyme mixed with dissolved CMC microneedle containing no lysozyme) was “no change in lysozyme activity”. For the same substance, the “protein structure (CD)” value ([3]; after storage of microneedle patches for 2 months at room temperature) was “unchanged”, the “change in protein secondary structure (CD)” value ([3]; encapsulated in microneedle patch, then released by dissolution, versus untreated lysozyme) was “no detectable change” and the “secondary structure (CD), positive control” value ([3]; thermally treated at 80° C. for 30 min) was “extensive degradation of secondary structure”.

From patent publication US20090182306A1, “Microneedle Devices and Methods of Drug Delivery or Fluid Withdrawal” (Georgia Tech Research Corporation, priority 2006, published 2009)
